Reference: patent US20020090382A1 (UNIVERSITY OF PITTSBURGH OF THE COMMONWEALTH SYSTEM OF …, published 2002)

Legend:
HveC(346t) = biological target: T1, HveC(346t) (UniProt Q15223 31-346); experiment: ELISA, peptide on coated HveC(346t), antiserum R11
T1 construct: Purified soluble receptor coated on ELISA plates; also called recombinant HveC; soluble gD receptor HveC
T1 sequence: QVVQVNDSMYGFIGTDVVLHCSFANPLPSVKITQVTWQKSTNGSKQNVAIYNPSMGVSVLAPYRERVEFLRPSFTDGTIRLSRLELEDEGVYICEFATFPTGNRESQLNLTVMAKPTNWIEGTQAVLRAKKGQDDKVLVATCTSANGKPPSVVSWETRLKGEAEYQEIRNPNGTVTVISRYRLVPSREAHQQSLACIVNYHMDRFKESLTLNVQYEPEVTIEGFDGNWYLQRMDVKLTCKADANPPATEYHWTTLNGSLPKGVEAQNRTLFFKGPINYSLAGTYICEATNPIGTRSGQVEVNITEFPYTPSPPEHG

HveA(200t) = biological target: T2, HveA(200t) (UniProt Q92956 39-200); experiment: ELISA, peptide on coated HveA(200t), antiserum R11
T2 construct: Purified soluble receptor coated on ELISA plates; also called recombinant HveA; soluble gD receptor HveA
T2 sequence: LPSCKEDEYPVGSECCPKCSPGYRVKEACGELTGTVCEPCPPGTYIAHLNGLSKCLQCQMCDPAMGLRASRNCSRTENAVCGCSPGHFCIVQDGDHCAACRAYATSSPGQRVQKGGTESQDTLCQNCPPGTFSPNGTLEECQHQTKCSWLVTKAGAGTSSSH

ASLKMADPNRFRGKDLPVLDQ (synthetic peptide) [Polypeptide A1]: no binding (tested: between 1 µM and 1000 µM) (HveC(346t)); no binding (tested: between 1 µM and 1000 µM) (HveA(200t)).
